Where a chain is given by its changes, count along the chain named.
Experiments:
hSIRT3R99/100G-FLAG = target: T1, hSIRT3R99/100G-FLAG
T1 chain: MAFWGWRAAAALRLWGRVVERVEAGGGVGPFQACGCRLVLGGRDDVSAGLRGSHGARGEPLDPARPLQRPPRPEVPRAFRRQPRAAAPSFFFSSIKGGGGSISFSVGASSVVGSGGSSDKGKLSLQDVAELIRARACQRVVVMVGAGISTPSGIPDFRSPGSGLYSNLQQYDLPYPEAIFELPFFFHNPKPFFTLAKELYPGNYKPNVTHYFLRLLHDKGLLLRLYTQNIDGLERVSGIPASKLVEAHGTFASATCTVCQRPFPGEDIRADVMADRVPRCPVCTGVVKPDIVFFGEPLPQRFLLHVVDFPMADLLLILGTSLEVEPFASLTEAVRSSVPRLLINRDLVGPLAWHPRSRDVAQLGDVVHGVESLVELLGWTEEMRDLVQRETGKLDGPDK

[1] = target: fusion protein between subunit 9 of F0/F1-ATPase and DHFR
[2] = target: other hSIRT3 mutants targeting arginine residues at positions 133, 135, 139 and 158
[3] = target: T2, hSIRT3-FLAG, full-length 44 kDa form
T2 chain: T1 chain with G99R, G100R

B1: purified recombinant yeast MPP (protein)
chain 1: ARTDNFKLSSLANGLKVATSNTPGHFSALGLYIDAGSRFEGRNLKGCTHILDRLAFKSTEHVEGRAMAETLELLGGNYQCTSSRENLMYQASVFNQDVGKMLQLMSETVRFPKITEQELQEQKLSAEYEIDEVWMKPELVLPELLHTAAYSGETLGSPLICPRELIPSISKYYLLDYRNKFYTPENTVAAFVGVPHEKALELTEKYLGDWQSTHPPITKKVAQYTGGESCIPPAPVFGNLPELFHIQIGFEGLPIDHPDIYALATLQTLLGGGGSFSAGGPGKGMYSRLYTHVLNQYYFVENCVAFNHSYSDSGIFGISLSCIPQAAPQAVEVIAQQMYNTFANKDLRLTEDEVSRAKNQLKSSLLMNLESKLVELEDMGRQVLMHGRKIPVNEMISKIEDLKPDDISRVAEMIFTGNVNNAGNGKGRATVVMQGDRGSFGDVENVLKAYGLGNSSSSKNDSPKKKGWF
chain 2: SQIPGTRTSKLPNGLTIATEYIPNTSSATVGIFVDAGSRAENVKNNGTAHFLEHLAFKGTQNRSQQGIELEIENIGSHLNAYTSRENTVYYAKSLQEDIPKAVDILSDILTKSVLDNSAIERERDVIIRESEEVDKMYDEVVFDHLHEITYKDQPLGRTILGPIKNIKSITRTDLKDYITKNYKGDRMVLAGAGAVDHEKLVQYAQKYFGHVPKSESPVPLGSPRGPLPVFCRGERFIKENTLPTTHIAIALEGVSWSAPDYFVALATQAIVGNWDRAIGTGTNSPSPLAVAASQNGSLANSYMSFSTSYADSGLWGMYIVTDSNEHNVQLIVNEILKEWKRIKSGKISDAEVNRAKAQLKAALLLSLDGSTAIVEDIGRQVVTTGKRLSPEEVFEQVDKITKDDIIMWANYRLQNKPVSMVALGNTSTVPNVSYIEEKLNQ
hSIRT3R99/100G-FLAG
  cleavage by MPP in vitro: showed abrogation of cleavage by MPP in vitro
[1]
  cleavage by MPP in vitro: resulted in the appearance of digestion products similar to what has been previously reported
[2]
  cleavage by MPP in vitro: other mutants were unaffected
[3]
  cleavage by MPP in vitro: led to its cleavage to a product of ˜28 KDa

— patent US20040091953
